# From patent US20210317231A1 (BYONDIS B V, published 2021)
# Positions count from the first letter of the chain named.
# T1: cynomolgus monkey 5T4 antigen (cynomolgus monkey, UniProt Q4R8Y9 35-420)
# T1 construct: whole, on cells; also called cyno 5T4
# T1 sequence (looked up): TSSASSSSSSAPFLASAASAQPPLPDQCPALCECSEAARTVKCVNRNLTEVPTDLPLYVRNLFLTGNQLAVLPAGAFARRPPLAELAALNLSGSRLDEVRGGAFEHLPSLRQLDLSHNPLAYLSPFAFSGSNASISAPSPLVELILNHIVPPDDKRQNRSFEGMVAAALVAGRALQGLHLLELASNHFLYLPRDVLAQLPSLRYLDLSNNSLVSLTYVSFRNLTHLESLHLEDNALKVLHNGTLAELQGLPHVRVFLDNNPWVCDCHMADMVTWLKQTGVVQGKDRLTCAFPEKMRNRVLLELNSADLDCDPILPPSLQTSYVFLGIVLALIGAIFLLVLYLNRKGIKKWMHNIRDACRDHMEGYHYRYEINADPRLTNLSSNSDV
# T2: human 5T4 oncofoetal antigen (human, UniProt Q13641 32-420)
# T2 construct: whole, on cells; also called hu 5T4; human 5T4 antigen
# T2 sequence (looked up): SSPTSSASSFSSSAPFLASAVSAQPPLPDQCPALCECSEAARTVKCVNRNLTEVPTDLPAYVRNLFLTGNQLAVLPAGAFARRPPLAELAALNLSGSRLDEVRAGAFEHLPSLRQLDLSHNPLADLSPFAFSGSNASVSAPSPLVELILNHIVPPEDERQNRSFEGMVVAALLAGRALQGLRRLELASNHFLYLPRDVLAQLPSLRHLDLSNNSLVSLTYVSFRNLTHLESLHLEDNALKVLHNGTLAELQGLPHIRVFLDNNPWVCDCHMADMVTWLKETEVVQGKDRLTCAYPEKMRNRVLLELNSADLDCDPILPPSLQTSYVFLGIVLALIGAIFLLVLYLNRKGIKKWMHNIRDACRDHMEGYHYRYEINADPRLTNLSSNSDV
# B1: chimeric anti-5T4 monoclonal antibody 825 (antibody, human IgG1, V domains shown)
# VH: QSVEESGGRLVTPGTPLTLTCTVSGIDLSSYGMGWVRQAPGKGLEYIGIISRNSVTYYATWAKGRFTISKTSTTVDLKMTSPTTEDTATYFCARRATYSGALGYFDIWGPGTLVTVSF
# VL: GYDMTQTPASVSAAVGGTVTINCQASENIYSTLAWYQQKPGQPPKVLIYDAFDLASGVPSRFKGSGSGTEYTLTISGVQSDDAATYYCQQGYSGTNVDNAFGGGTEVVVK
# notes: also called clone 825
# B2: chimeric anti-5T4 monoclonal antibody 843 (antibody, human IgG1, V domains shown)
# VH: QSLEESGGRLVTPGTPLTLTCTASGFSLNNAYMNWVRQAPGKGLEWIGIINTYGSTYFATWAKGRFTFSKTSTTVDLKITSPTTEDTATYFCARAYAPFSTYSHYYGMDLWGPGTLVTVSS
# VL: DVVMTQTPSSVSAAVGGTVTIKCQASESIGSWLSWYQQKPGQPPKLLIYEASKLTSGVPSRFKGSGSGTEYTLTISDLESADAATYYCQYTDYGSNYLGTFGGGTEVVVK
# B3: chimeric anti-5T4 monoclonal antibody 833 (antibody, IgG1, V domains shown)
# VH: QSLEESGGGLVTPGGSLTLTCTGSGIDLSHYVVGWVRQAPGKGLEWIGIIYGSGRTYYANWAKGRFTISKTSTTVDLRIARPTAEDTATYFCARDASVSVYYWGYFDLWGQGTLVTVSS
# VL: AYDMTQTPVSVEVAVGGTVTIKCQASQSIGSELAWYQQKPGQPPKLLIYRASTLESGVPSRFSGSGSGTEFTLTISGVESADAATYYCQQGYTYSEIDNAFGGGTEVVVK
# notes: also called clone 833
# B4: chimeric anti-5T4 monoclonal antibody 835 (antibody, human IgG1, V domains shown)
# VH: QSVEESGGRLVTPGTPLTLTCTVSGIDLSSGAMGWVRQAPGKGLEWIGLISSSPITYYANWARGRFTISKTSTTVDLKITSPTTADTATYFCARGYDDYGEIWFNIWGPGTLVTVSL
# VL: AIEMTQSPPSLSASVGETVRIRCLAGEDIYSSISWYQQKPGKPPTLLIYGASNLESGVPPRFSGSGSGTDYTLTIGGVQAEDAATYYCLGGWSYSSSLTFGAGTKVEIK
# B5: chimeric anti-5T4 monoclonal antibody 789 (antibody, human IgG1, V domains shown)
# VH: QSVEESGGRLVTPGTPLTLTCTASGFSLSSYWMSWVRQAPGKGLEWIGIIAGRGSTYYASWAKGRCTISKTSTTVDLKITSPTTEDTAAYFCARVSSIYYTFNLWGQGTLVTVSS
# VL: AQVLTQTPSSVSAAVGGTVTINCQSSQSVYSNNELSWYQQKPGQPPKLLIYYASTLASGVPSRFKGSGSGTQFTLTISGVQSDDAATYYCQGSYYSGSGWYYAFGGGTEVVVK
# notes: also called clone 789
# B6: chimeric anti-5T4 monoclonal antibody 899 (antibody, human IgG1, V domains shown)
# VH: QSVEESGGRLVTPGTPLTLTCTVSGFSLSSYTMSWVRQAPGKGLEYIGIISSSDGTWYANWVKGRFTISKTSTTVDLKMTSLTTEDTATYFCARDGTGNKYYTWDRLDLWGQGTLVTVSS
# VL: NIVMTQTPSPVSGAVGGTVTINCQASQSIYNELSWYQQKPGQPPKLLIYYASTLASGVSSRFKGSGSGTQFTLTISGVESVDAATYYCQQGYSSSNVDNVFGGGTEVVVK
# B7: chimeric anti-5T4 monoclonal antibody 848 (antibody, human IgG1, V domains shown)
# VH: B6 VH with Y46W, S53I, D54G, G55S, T56I, N60S, V62A, N99S
# VL: B6 VL with A51T, N96D
# B8: chimeric anti-5T4 monoclonal antibody 868 (antibody, human IgG1, V domains shown)
# VH: QSVEESGGRLVTPGTPLTLTCTASGFSLSDYTMGWVRQAPGKGLEWIGIINGYGSTYYANWAKGRFAISKTSTTVDLKITSPATEDTATYFCARGDTGRTYDMHFNLWGQGTLVTVSS
# VL: AYDMTQTPASVSAAVGGTVTIKCQASESIRSWLAWYQQKPGQPPKLLIYSASTLASGVSSRFKGSGSGTQFTLTIGDLESADAATYYCQQGYTSSNLDNAFGGGTEVLVK
# B9: chimeric anti-5T4 monoclonal antibody 841 (antibody, human IgG1, V domains shown)
# VH: QSLEESGGRLVTPGTPLTLTCKASGFSLSTYWMSWVRQAPGKGLEWIGIMLSYGNTVYANWAKGRFTISKTSSTTVDLKITSPTTEDTATYFCARGLYGGYPNYGVYDLWGQGTLVTVSS
# VL: DVVMTQTPASVEAAVGGTVTIKCQASQSISSYLSWYQQKPGQPPKLLIYAASNLASGVSSRFKGSRSGTEYTLTISDLESADAATYYCQCTDYGSNYVGAFGGGTEVVVK
# B10: chimeric anti-5T4 monoclonal antibody 845 (antibody, human IgG1, V domains shown)
# VH: QSLEESGGRLVTPGTPLTLTCTVSGIDLSSYTMNWVRQAPGKGLEWIGVITSHNTYYASWAKGRFTISKTSTTVDLKITSPTTEDTATYFCARSNYGSTIYYMGGMDPWGPGTLVTVSS
# VL: DVVMTQTPASVSAAVGGTVTINCQASQSIGSYLAWYQHQPGQPPKLLIYSASTLESGVSSRFEGSRSGTEYTLTISDLDSADAATYYCQCTDYGASYLGAFGGGTEVVVK
# B11: chimeric anti-5T4 monoclonal antibody 834 (antibody, human IgG1, V domains shown)
# VH: QSVEESGGRLVTPGTPLTLTCTVSGFSLSTYSMSWVRQAPGKGLEWIGVISRGGSAYYASWAKGRFTISKTSTTVDLKVTSPTTEDTATYFCARGAISSGYYVYDGMDLWGPGTLVTVSS
# VL: DIVMTQTPGSVEAAVGGTVTIKCQASESISSYLAWYQQKPGQPPKFLIYSASTLASGVPSRFKGSGSGTEFTLTISDLESADAATYYCQCTDYGSDYMGAFGGGTGVVVK
# B12: chimeric anti-5T4 monoclonal antibody 829 (antibody, human IgG1, V domains shown)
# VH: QSLEESGGRLVTPGTPLTLTCTASGFSLSSYDMSWVRQAPGKGLEYIGWINSDDGAYYANWAKGRFTISRTSTTVDLKITSPTTEDTATYFCARDAGSTYLYGLDPWGPGTLVTVSS
# VL: DVVMTQTPSSVSAGVGGTVTIKCQASQSISSYLAWYQQKPGQRPKLLIYAASTLASGVSSRFKGSGSGTEYTLTINDLESADAATYYCQCTYYGGTYNTFGGGTEVVVK
# How the values were obtained:
# [1] = molecular target: T1, cynomolgus monkey 5T4 antigen; experiment: flow cytometry, CHOZN cells expressing cyno 5T4
# Protocol: (§1) 17 antibodies were selected and affinity to 5T4 antigen was measured using MDA-MB-468 cells, PA-1 cells and Chinese Hamster Ovary (CHO) mammalian cells expressing human or cyno 5T4 antigen (Table 2). In the current application the utilized CHO cells are referred to as CHOZN as these CHO cells expressing human or cyno 5T4 antigen were obtained using the CHOZN® Platform of Sigma-Aldrich. CHOZN cells (SAFC) were transiently transfected, using an Amaxa nucleofector device (Lonza) according to the manufacturer's instructions. Standard, commercially available mammalian expression vectors (SAFC, Life Technologies) were used, which contained the full length human and cyno 5T4 antigen coding sequence (according to accession number NP 006661.1 and Q4R8Y9 respectively), preceded by a human CMV promoter. Transiently transfected CHOZN cells were cultured according the manufacturer's instructions, before being used in antibody binding studies. The 17 selected antibodies are characterised by the amino acid sequences according to the following table (Table 1).
# (§2) MDA-MB-468 cells, PA-1 cells or CHOZN cells expressing human or cyno 5T4 antigen (100,000 cells/well in a 96-well plate) were washed three times with ice-cold FACS buffer (1×PBS (Lonza) containing 0.2% v/w BSA (Sigma-Aldrich, St. Louis, Mo.)) and 0.02% v/w NaN3 (Sigma-Aldrich), followed by the addition of a concentration range of each primary mAb (50 μl/well) diluted in ice-cold FACS buffer. After an incubation of 30 minutes at 4° C., cells were washed three times with ice-cold FACS buffer and 50 μl/well secondary mAb (AffiniPure F(ab′)2 fragment Goat-anti-human IgG-APC, 1:6,000 dilution, Jackson Immuno Research) was added. After 30 minutes at 4° C., cells were washed twice and resuspended in 150 μl FACS buffer. Fluorescence intensities were determined by flow cytometry (BD FACSVerse, Fanklin Lakes, N.J.) and indicated as the median fluorescence intensity (MFI). Curves were fitted by nonlinear regression using the sigmoidal dose-response equation with variable slope (four parameters) in GraphPad Prism (version 5.01/6.01 for Windows, GraphPad, San Diego, Calif.). EC₅₀ values were calculated as the concentration in μg/ml that gives a response half way between bottom and top of the curve, when using a 4 parameter logistic fit.
# [2] = molecular target: T2, human 5T4 oncofoetal antigen; experiment: flow cytometry, PA-1 cells
# Protocol: as §1, §2
# [3] = molecular target: T2, human 5T4 oncofoetal antigen; experiment: flow cytometry, MDA-MB-468 cells
# Protocol: as §1, §2
# [4] = molecular target: T1, cynomolgus monkey 5T4 antigen; experiment: flow cytometry, CHOZN cells expressing cyno 5T4; remark: listed apart in the source
# Protocol: as §2
# [5] = molecular target: T2, human 5T4 oncofoetal antigen; experiment: flow cytometry, CHOZN cells expressing hu 5T4
# Protocol: as §1, §2
Binder,EC50 [1],EC50 [2],EC50 [3],fold improvement of binding compared to H8 on cyno 5T4 [4],EC50 [5]
B1,0.14 µg/mL,0.03 µg/mL,0.07 µg/mL,32 fold,0.13 µg/mL
B2,0.21 µg/mL,0.04 µg/mL,0.08 µg/mL,32 fold,0.21 µg/mL
B3,0.08 µg/mL,0.02 µg/mL,0.04 µg/mL,32 fold,0.14 µg/mL
B4,0.18 µg/mL,0.08 µg/mL,0.09 µg/mL,32 fold,0.17 µg/mL
B5,0.15 µg/mL,0.03 µg/mL,0.1 µg/mL,32 fold,0.27 µg/mL
B6,0.18 µg/mL,0.05 µg/mL,0.09 µg/mL,32 fold,0.17 µg/mL
B7,0.12 µg/mL,0.05 µg/mL,0.09 µg/mL,32 fold,0.17 µg/mL
B8,0.17 µg/mL,0.04 µg/mL,0.14 µg/mL,32 fold,0.22 µg/mL
B9,0.14 µg/mL,0.02 µg/mL,0.1 µg/mL,32 fold,0.24 µg/mL
B10,0.17 µg/mL,0.05 µg/mL,0.11 µg/mL,32 fold,0.2 µg/mL
B11,0.13 µg/mL,0.05 µg/mL,0.13 µg/mL,32 fold,0.19 µg/mL
B12,0.22 µg/mL,0.07 µg/mL,0.17 µg/mL,32 fold,0.24 µg/mL
